Laboratory results as given in US20220135701A1 (Genentech, published 2022).
Where two headings read alike, the source gives them in different places. Each block holds one binder with its values, some of them ahead of it.

Experiments:
[1] = target: T1, human MerTK on human macrophages (human, UniProt Q12866 21-999); assay: cell-based or functional assay
T1 sequence: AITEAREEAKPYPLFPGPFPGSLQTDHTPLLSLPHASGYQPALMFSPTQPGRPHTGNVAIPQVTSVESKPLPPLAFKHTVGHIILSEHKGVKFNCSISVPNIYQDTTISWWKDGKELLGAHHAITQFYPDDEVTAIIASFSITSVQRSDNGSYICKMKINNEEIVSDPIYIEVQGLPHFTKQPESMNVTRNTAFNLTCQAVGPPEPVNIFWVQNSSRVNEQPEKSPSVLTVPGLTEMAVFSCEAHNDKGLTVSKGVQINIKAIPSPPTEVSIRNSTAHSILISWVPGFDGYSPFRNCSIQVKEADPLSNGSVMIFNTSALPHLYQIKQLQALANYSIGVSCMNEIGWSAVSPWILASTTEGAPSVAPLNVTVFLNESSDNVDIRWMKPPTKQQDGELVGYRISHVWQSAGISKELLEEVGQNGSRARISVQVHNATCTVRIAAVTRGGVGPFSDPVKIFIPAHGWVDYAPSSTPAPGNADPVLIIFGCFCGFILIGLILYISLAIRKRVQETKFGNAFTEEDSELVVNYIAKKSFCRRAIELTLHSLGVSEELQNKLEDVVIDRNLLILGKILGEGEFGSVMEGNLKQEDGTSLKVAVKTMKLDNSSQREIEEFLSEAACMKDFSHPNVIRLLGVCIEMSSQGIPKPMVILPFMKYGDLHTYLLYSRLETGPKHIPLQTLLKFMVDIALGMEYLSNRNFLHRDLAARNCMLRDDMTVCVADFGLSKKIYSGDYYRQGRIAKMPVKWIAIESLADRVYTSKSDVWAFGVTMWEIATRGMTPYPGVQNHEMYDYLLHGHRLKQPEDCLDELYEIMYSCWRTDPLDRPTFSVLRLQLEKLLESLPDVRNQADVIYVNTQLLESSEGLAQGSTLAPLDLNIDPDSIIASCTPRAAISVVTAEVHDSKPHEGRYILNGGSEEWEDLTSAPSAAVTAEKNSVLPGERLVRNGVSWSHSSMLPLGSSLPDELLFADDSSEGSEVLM

human MerTK [2] = target: T2, human MerTK (human, UniProt Q12866 26-499); assay: SPR BIAcore T200, Ab captured, 37C
T2 construct: also called HuMER
T2 sequence: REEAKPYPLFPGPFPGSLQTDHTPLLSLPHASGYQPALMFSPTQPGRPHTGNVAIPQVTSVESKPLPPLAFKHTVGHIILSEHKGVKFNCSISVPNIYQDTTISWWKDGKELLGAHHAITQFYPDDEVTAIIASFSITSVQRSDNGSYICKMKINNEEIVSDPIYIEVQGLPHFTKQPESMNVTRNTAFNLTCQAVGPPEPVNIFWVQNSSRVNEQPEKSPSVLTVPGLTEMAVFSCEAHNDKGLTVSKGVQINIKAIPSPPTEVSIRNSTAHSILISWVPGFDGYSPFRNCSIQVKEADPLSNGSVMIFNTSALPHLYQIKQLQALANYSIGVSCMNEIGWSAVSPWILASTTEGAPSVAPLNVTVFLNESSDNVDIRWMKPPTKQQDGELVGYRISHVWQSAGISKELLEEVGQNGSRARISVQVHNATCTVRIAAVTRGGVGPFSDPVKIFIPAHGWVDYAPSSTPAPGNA
Protocol: (§1) Each rabbit and humanized antibody was subjected to a binding assay to determine its affinity to MerTK derived from various species.
(§2) All binding affinity determinations were obtained using Surface Plasmon Resonance (SPR) measurements from a BIAcore™-T200 instrument. Briefly, each rabbit or humanized antibody was captured to achieve approximately 100 RU (Response Units). Then, 3-fold serial dilutions of MerTK from various species (0.4 nM to 100 nM) diluted in HBS-EP buffer (0.01M HEPES pH 7.4, 0.15M NaCl, 3 mM EDTA and 0.05% v/v surfactant P20) was injected into the BIAcore™-T200 instrument at 25° C. or 37° C. with a flow rate of 30 μl/min. Association rates (kₒₙ) and dissociation rates (koff) were calculated using a simple one-to-one Langmuir binding model (BIAcore T200 evaluation software version 2.0). The equilibrium dissociation constant (KD) was calculated as the ratio koff/kₒₙ.

cynomolgus monkey MerTK [3] = target: T3, cynomolgus monkey MerTK (cynomolgus monkey, UniProt A0A2K5V1H9 32-505); assay: SPR BIAcore T200, Ab captured, 37C
T3 construct: Soluble analyte in SPR; also called Cyno MerTK
T3 sequence: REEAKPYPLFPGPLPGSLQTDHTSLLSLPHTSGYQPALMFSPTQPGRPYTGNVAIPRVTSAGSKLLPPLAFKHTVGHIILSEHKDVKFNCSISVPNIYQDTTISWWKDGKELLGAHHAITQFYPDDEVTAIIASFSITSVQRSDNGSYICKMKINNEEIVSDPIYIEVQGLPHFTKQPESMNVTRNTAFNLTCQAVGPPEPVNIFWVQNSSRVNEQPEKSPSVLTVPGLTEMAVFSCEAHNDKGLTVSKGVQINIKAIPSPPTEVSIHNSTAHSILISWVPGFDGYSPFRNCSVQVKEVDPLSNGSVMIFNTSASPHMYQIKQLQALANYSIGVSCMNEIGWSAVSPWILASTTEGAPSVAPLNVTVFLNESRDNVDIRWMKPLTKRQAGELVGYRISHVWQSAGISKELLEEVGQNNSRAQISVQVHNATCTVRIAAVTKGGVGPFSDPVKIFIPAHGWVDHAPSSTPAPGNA
Protocol: as §1, §2

rat MerTK [4] = target: T4, rat MerTK (rat, UniProt P57097 23-496, limits assumed); assay: SPR BIAcore T200, Ab captured, 37C
T4 construct: Soluble analyte in SPR
T4 sequence (looked up): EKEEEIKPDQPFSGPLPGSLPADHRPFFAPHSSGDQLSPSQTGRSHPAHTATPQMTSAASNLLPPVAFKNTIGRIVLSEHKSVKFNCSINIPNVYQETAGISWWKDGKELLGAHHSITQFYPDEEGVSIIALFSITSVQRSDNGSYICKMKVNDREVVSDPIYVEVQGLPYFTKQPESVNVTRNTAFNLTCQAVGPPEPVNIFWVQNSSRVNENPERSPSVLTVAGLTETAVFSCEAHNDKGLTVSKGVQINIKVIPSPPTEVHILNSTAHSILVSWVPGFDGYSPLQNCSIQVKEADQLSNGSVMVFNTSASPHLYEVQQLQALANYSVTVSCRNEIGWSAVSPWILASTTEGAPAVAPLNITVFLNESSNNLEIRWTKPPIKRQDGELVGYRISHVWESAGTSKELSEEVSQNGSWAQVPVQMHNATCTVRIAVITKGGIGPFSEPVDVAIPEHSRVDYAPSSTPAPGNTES
Protocol: as §1, §2

mouse MerTK [5] = target: T5, mouse MerTK (mouse, UniProt Q60805 23-496); assay: SPR BIAcore T200, Ab captured, 37C
T5 construct: also called MuMER
T5 sequence (looked up): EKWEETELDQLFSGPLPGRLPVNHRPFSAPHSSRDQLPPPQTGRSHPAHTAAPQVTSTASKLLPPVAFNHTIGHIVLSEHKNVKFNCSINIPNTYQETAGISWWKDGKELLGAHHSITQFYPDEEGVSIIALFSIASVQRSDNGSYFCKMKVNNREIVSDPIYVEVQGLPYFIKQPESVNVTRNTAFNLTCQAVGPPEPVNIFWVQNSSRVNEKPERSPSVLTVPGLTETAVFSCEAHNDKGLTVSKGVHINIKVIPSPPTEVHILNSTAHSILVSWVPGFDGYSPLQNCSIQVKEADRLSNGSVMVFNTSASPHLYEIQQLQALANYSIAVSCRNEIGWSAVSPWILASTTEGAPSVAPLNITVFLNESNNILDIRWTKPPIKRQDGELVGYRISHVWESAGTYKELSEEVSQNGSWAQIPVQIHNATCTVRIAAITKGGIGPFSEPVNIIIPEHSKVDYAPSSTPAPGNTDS
Protocol: as §1, §2

human MerTK [6] = target: T2, human MerTK; assay: SPR BIAcore T200, Ab captured, 25C
Protocol: as §2

cynomolgus monkey MerTK [7] = target: T3, cynomolgus monkey MerTK; assay: SPR BIAcore T200, Ab captured, 25C
Protocol: as §2

mouse MerTK [8] = target: T5, mouse MerTK; assay: SPR BIAcore T200, Ab captured, 25C
Protocol: as §2

human MerTK [9] = target: T2, human MerTK; assay: SPR BIAcore T200, Ab captured, 37C; remark: listed apart in the source
Protocol: as §2

cynomolgus monkey MerTK [10] = target: T3, cynomolgus monkey MerTK; assay: SPR BIAcore T200, Ab captured, 37C; remark: listed apart in the source
Protocol: as §2

rat MerTK [11] = target: T4, rat MerTK; assay: SPR BIAcore T200, Ab captured, 37C; remark: listed apart in the source
Protocol: as §2

mouse MerTK [12] = target: T5, mouse MerTK; assay: SPR BIAcore T200, Ab captured, 37C; remark: listed apart in the source
Protocol: as §2

HuMER (R26-A499) = target: T6, HuMER (R26-A499) (human, UniProt Q12866 26-499); assay: SPR BIAcore T200, Ab captured, 25C
T6 construct: Extracellular domain with both Ig-like and both fibronectin-like domains; also called human MerTK extracellular domain
T6 sequence: T2 sequence
Protocol: (§3) Binding affinity determinations were obtained using Surface Plasmon Resonance (SRP) measurements from a BIAcore™-T200 instrument. Briefly, each rabbit antibody was captured to achieve approximately 100 RU (Response Units). Then, 3-fold serial dilutions of the various MerTK domains (0.4 nM to 100 nM) diluted in HBS-EP buffer (0.01M HEPES pH 7.4, 0.15M NaCl, 3 mM EDTA and 0.05% v/v surfactant P20) was injected into the BIAcore™-T200 instrument at 25° C. or 37° C. with a flow rate of 30 μl/min. Association rates (kₒₙ) and dissociation rates (koff) were calculated using a simple one-to-one Langmuir binding model (BIAcore T200 evaluation software version 2.0). The equilibrium dissociation constant (KD) was calculated as the ratio koff/kₒₙ.
(§4) Antibody epitope determination was assessed by BIAcore analysis for rabbit antibodies binding against both the human and mouse MerTK extracellular domain (HuMER R26-A499 and MuMER E23-S496), Ig1&2 domain, Ig1-only domain, and Ig2-only domain (TABLE 18). Human MerTK and its domains are shown in light gray, while mouse MerTK and its domains are shown in dark gray.

MuMER (E23-S496) = target: T7, MuMER (E23-S496) (mouse, UniProt Q60805 23-496); assay: SPR BIAcore T200, Ab captured, 25C
T7 construct: range 23-496; also called mouse MerTK extracellular domain
T7 sequence (looked up): T5 sequence (looked up)
Protocol: as §3, §4

IC50 (nM), efferocytosis by human macrophages, Average (3 Donors) [1]: 1.02 nM
IC50 (nM), efferocytosis by human macrophages, Donor A [1]: 0.59 nM
IC50 (nM), efferocytosis by human macrophages, Donor C [1]: 1.5 nM
Max Inhibition (%), efferocytosis by human macrophages, Average (3 Donors) [1]: 57%
Max Inhibition (%), efferocytosis by human macrophages, Donor A [1]: 58%
Max Inhibition (%), efferocytosis by human macrophages, Donor C [1]: 55%
Kd (human MerTK [2]): 5.8 nM
Kd (cynomolgus monkey MerTK [3]): 2.5 nM
Kd (rat MerTK [4]): 3 nM
Kd (mouse MerTK [5]): 1.1 nM
B1: h9E3.FN.v16 (antibody, V domains shown)
VH: EVQLVESGGGLIQPGGSLRLSCAASGFSLSSNAMSWVRQAPGKGLEWVSIISSSGSTYSASWAKGRFTISKDNSKNTLYLQMNSLRAEDTAVYYCARVGFFVGYGAYDYGIIHRLDLWGQGTLVTVSS
VL: DIQLTQSPSTLSASVGDRVTITCQSSKSIYNNNWLSWYQQKPGKPPKLLIYDASDLASGVPSRFSGSGSGTEFTLTISSLQPDDFATYYCAGGYSGDSDYAFGGGTKVEIK
notes: Humanized, human IgG1; also called 9E3.FN Humanized polished mAb

Kd (human MerTK [6]): 7 nM
Kd (cynomolgus monkey MerTK [7]): 4.7 nM
Kd (mouse MerTK [8]): 4.1 nM
Kd (human MerTK [9]): 10.9 nM
Kd (cynomolgus monkey MerTK [10]): 5.1 nM
Kd (rat MerTK [11]): 5.8 nM
Kd (mouse MerTK [12]): 2.4 nM
Kd (HuMER (R26-A499)): 7 nM
Kd (MuMER (E23-S496)): 4.1 nM
B2: Rbt10F7 (antibody, V domains shown)
VH: QSVEESGGRLVTPGTPLTLTCTVSGFSLSGYAMSWVRQAPGKGLEYIGVISSSGSSYYPSWAKGRFTISKTSTTVDLQITSPTTEDTATYFCARVQFYVGYAVYGYGIIDRLDLWGQGTLVTVSS
VL: AAVLTQTPSPVSATMGGTVSISCQSSKSVYNNNWLSWYQQKPGQPPKLLIYRASTLESGVPSRFKGSGSGTQFTLTISDVHCDDAATYFCAGGYSSSSSANAFGGGTEVVVK
notes: Recombinant rabbit monoclonal antibody, Expi293, protein A purified
